Assay results as given in article PMC7491320, “Pdc2/Pat1 increases the range of decay factors and RNA bound by the Lsm1–7 complex” (RNA, 2019).

Legend:
[1] = target: the molecule itself; test: AUC; sedimentation velocity, 9.3 µM PatMC/Lsm1–7 without RNA, 250 mM NaCl, 20 mM HEPES pH 7.0, 1 mM DTT, 22°C, 30,000 rpm, 10–12 h
[2] = target: the molecule itself; test: AUC; sedimentation velocity, 9.3 µM PatMC/Lsm1–7 with stoichiometric A15 RNA, 250 mM NaCl, 20 mM HEPES pH 7.0, 1 mM DTT, 22°C, 30,000 rpm, 10–12 h

B1: PatMC/Lsm1–7 complex (complex)
chain 1: LDEKRQKLERDHMLMAQCAGLMTRSDKSFIARIQISQLMSEDPESDDFYYRVYSIIRGRKPSEEEASHFIQTYLGPSNNRRRGRRSENPMQKLQQQLQRLVSSAKERPKATQLSLEGALGKIAVNTVRTPRQLLNVKRPTEPASSNSSLNNFSGFSTKKDVLHAIEKVYDLLLDFEQALRKASTLETTDQEQIDTWKTTLSEKLESIWKALYINESLEASSKTRPPFISIISHPKGMRLLPRLFPHLSKEQQISILKVVVYNFDSLDIVLRGTFDVNGELPLDVVSEMSSFTQFIIPPLLTIVNELDLETINNLFSQLLNRTNAVYLIQTKIGLSFLTLFISRAEILKQSGTVNQNEKEEWENTFNVMFNRVKGHFSTVFPPPNARAYADESYPWEFLAACATAASSEQHFTLVSETRDRVLDNIITSKRAPSEIAVVRISNVNLFLNAMGLDARQLSA
chain 2: MNQATQIIPFTTSGSLVDYVDRKVIVVLRDGKKLIGILRSFDQFANLMLQYTIERIYVDDMYGDIDRGVYIVRGENVVLLGELDLDKEYDAVKQLRRMPAEELYPLAKLHEEEKKKNIREKGKYLHSVGFSVDGGHDDLY
chain 3: MLFYSFFKTLIDTEVTVELKNDMSIRGILKSVDQFLNVKLENISVVDASKYPHMAAVKDLFIRGSVVRYVHMSSAYVDTILLADACRRDLANNKRQ
chain 4: not shown
chain 5: MLPLTLLNATQGRPILVELKNGETFNGHLENCDNYMNLTLREVIRTMPDGDKFFRLPECYIRGNNIKYLRIQDEVLSQVAKQQAQQRENRGSRFRGRGQRGRGNYGHTAPNRRGRGRGGHM
chain 6: not shown
chain 7: MDSSPNEFLNKVIGKKVLIRLSSGVDYKGILSCLDGYMNLALERTEEYVNGKKTNVYGDAFIRGNNVLYVSALDD
chain 8: MSSLQKRPGPGNSSQPTERPRKESILDLSRYQDQRIQATFTGGRQITGILKGFDQLMNLVLDDVEEQLRNPEDGKLTGAIRKLGLVVVRGTTLVLIAPMDGSEEIPNPFVQAE
notes: Pat1 (Pdc2) of S. pombe, middle and carboxy-terminal domains (PatMC), residues 296-754, codon optimized; Lsm1 of S. pombe, from a polycistron with all seven Lsm proteins; Lsm2 of S. pombe, from the polycistron; Lsm3 of S. pombe, from the polycistron; Lsm4 of S. pombe, from the polycistron; Lsm5 of S. pombe, from the polycistron; Lsm6 of S. pombe, from the polycistron; Lsm7 of S. pombe, from the …
[1]
  stoichiometry N: 2
[2]
  stoichiometry N: 4
